Test results taken from paper PMC12120766, “Paclitaxel/Luteolin Coloaded Dual‐Functional Liposomes for Esophageal Cancer Therapy”.

How the values were obtained:
CTNNA1 (catenin alpha 1) [1] = molecular target: T1, CTNNA1 (catenin alpha 1) (UniProt P35221 2-906); assay: MST; MST: 50 nM labeled CTNNA1 in 10 mM PBS pH 7.4, EA2 0.00153-50 uM in 10 mM PBST (0.05% Tween-20) pH 7.4; temperature not stated; settings: tags: RED-NHS dye label; predicted mFold secondary structure
CTNNA1 (catenin alpha 1) [2] = molecular target: T1, CTNNA1 (catenin alpha 1); assay: MST; no antibody (control of the antibody competition); MST: 50 nM labeled CTNNA1 in 10 mM PBS pH 7.4, EA2 0.00153-50 uM in 10 mM PBST (0.05% Tween-20) pH 7.4; temperature not stated; settings: tags: RED-NHS dye label; predicted mFold secondary structure

T1 sequence (P35221 2-906): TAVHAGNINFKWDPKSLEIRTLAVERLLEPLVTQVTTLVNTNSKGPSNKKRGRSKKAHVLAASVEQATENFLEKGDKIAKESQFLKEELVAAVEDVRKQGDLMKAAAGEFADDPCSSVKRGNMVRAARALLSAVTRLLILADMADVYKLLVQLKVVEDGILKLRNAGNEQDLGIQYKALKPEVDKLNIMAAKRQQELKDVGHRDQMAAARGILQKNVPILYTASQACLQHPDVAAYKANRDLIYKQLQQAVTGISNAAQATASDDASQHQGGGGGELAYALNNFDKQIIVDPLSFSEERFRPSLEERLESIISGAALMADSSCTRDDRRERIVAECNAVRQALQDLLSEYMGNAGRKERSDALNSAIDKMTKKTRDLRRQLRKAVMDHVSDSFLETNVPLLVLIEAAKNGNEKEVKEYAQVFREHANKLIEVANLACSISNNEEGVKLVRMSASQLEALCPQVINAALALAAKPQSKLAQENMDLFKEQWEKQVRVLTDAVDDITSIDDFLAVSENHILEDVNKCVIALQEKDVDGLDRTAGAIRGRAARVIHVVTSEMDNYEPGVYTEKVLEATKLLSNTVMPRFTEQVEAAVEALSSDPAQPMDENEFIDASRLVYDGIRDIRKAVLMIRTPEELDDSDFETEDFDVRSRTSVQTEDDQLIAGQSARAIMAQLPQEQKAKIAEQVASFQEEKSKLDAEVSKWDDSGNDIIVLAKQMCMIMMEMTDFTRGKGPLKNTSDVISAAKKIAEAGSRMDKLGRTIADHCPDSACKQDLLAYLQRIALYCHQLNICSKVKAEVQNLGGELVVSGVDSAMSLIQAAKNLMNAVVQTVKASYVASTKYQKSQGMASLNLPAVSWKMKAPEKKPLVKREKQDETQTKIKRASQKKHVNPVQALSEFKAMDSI

B1: EA2 (ssDNA)
DNA: AGCCTAAGCCTGTCCAGGAATCGTGCAGCCATAGCCTAAGCCTGTCCAGGAATCGATGGCTTAGTGGCACGATTAGGTC
Kd (CTNNA1 (catenin alpha 1) [1]): 2.07 ± 0.6 µM
Kd (CTNNA1 (catenin alpha 1) [2]): 2.3 ± 0.6 µM
